Assay results reported in patent US6897054.

Target: huCdc7 fused to DNA-binding domain of Gal4 (human)
Experiment: yeast two-hybrid assay, lacZ activity

- interaction relative to the full-length clone: 10%
Substance: H37 deletion derivative ΔP2 fused to Gal4 activation domain (from UniProt Q9UBU7 1-431)
